Columns and labels:
[1] = molecular target: T1, native plasminogen glycoform II (purified in-house from human plasma), P00747
T1 chain: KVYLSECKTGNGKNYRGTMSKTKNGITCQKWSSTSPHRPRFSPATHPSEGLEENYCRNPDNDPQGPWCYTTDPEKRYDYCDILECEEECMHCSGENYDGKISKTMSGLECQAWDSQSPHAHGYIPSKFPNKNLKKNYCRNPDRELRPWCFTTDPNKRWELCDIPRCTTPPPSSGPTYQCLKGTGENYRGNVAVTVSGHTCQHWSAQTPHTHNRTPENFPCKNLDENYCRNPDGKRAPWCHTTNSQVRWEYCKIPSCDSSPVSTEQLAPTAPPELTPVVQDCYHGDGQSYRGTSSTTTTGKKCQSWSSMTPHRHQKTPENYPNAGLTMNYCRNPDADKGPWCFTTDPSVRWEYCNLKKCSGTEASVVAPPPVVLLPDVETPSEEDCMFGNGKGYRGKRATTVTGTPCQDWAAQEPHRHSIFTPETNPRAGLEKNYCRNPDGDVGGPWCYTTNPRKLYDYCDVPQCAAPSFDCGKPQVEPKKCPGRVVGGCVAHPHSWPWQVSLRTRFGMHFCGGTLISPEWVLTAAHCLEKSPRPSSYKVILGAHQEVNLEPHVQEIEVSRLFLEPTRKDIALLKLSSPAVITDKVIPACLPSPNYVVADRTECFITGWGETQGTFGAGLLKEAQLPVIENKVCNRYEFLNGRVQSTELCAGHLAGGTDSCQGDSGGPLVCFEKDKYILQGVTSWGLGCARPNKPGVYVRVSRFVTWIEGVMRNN

[2] = molecular target: T2, native plasminogen glycoform I (purified in-house from human plasma), P00747
T2 chain: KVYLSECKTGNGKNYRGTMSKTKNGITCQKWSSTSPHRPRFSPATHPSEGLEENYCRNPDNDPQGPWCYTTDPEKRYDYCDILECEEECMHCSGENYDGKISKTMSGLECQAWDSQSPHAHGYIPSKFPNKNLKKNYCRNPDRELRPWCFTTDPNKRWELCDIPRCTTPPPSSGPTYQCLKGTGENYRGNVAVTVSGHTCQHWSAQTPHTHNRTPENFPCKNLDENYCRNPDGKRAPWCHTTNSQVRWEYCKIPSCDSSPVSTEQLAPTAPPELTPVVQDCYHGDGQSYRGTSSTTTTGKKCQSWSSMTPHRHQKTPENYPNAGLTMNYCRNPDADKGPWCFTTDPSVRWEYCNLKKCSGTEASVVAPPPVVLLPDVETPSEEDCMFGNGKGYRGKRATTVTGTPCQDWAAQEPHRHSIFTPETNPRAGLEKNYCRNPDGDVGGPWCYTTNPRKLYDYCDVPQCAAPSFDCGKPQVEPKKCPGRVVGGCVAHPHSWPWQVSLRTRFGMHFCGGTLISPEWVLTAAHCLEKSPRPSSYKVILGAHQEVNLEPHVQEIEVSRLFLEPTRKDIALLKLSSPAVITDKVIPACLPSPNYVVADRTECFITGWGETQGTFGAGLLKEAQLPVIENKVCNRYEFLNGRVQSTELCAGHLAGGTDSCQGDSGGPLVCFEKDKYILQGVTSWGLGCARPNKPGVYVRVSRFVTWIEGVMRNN

recombinant plasminogen = molecular target: T3, recombinant plasminogen
T3 chain: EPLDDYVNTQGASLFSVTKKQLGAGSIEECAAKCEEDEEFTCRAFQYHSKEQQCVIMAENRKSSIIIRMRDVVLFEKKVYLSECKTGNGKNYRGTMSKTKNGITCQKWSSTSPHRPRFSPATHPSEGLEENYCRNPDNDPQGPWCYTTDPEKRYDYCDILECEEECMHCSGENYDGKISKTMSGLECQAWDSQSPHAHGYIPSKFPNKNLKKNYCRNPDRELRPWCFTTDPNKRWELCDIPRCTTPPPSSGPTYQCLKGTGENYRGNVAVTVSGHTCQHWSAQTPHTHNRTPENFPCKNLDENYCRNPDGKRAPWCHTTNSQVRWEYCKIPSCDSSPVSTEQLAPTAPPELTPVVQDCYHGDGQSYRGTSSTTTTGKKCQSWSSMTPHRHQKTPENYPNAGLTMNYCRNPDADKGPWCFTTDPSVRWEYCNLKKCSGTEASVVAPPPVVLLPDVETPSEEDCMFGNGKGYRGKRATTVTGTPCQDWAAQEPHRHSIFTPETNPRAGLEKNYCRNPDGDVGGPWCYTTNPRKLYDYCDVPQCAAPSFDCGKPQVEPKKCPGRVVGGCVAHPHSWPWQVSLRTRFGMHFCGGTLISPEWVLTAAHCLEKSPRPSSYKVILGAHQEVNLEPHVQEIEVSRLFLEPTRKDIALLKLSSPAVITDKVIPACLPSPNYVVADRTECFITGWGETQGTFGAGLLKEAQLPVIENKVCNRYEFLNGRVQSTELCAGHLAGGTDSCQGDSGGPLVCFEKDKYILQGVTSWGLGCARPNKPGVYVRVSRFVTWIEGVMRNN

B1: tissue-type plasminogen activator (protein)
chain: SYQVICRDEKTQMIYQQHQSWLRPVLRSNRVEYCWCNSGRAQCHSVPVKSCSEPRCFNGGTCQQALYFSDFVCQCPEGFAGKCCEIDTRATCYEDQGISYRGTWSTAESGAECTNWNSSALAQKPYSGRRPDAIRLGLGNHNYCRNPDRDSKPWCYVFKAGKYSSEFCSTPACSEGNSDCYFGNGSAYRGTHSLTESGASCLPWNSMILIGKVYTAQNPSAQALGLGKHNYCRNPDGDAKPWCHVLKNRRLTWEYCDVPSCSTCGLRQYSQPQFRIKGGLFADIASHPWQAAIFAKHRRSPGERFLCGGILISSCWILSAAHCFQERFPPHHLTVILGRTYRVVPGEEEQKFEVEKYIVHKEFDDDTYDNDIALLQLKSDSSRCAQESSVVRTVCLPPADLQLPDWTECELSGYGKHEALSPFYSERLKEAHVRLYPSSRCTSQHLLNRTVTDNMLCAGDTRSGGPQANLHDACQGDSGGPLVCLNDGRMTLVGIISWGLGCGQKDVPGVYTKVTNYLDWIRDNMRP
- Km (nM) of Plg activation by tPA [1]: 146 nM
- Vmax (nM/s) of Plg activation by tPA [1]: 1.67 nM/s
- Km (nM) of Plg activation by tPA [2]: 163 nM
- Vmax (nM/s) of Plg activation by tPA [2]: 3.06 nM/s
- Km (nM) of Plg activation by tPA (recombinant plasminogen): 139 nM
- Vmax (nM/s) of Plg activation by tPA (recombinant plasminogen): 3.47 nM/s
- cleavage to plasmin, SDS-PAGE under reducing conditions (recombinant plasminogen): tPA-cleaved recombinant plasmin (rPlm) resulting from the cleavage of rPlg by tPA

Reference: US20220267751
